Experimental data reported in patent publication US20040131613A1 (published 2004).

Molecular target: T1, human TNF-α (human, UniProt P01375 77-233)
T1 construct: It was biotinylated in the plaque lift and on-rate ELISA, and coated on plates or beads in the other assays; also called hTNF-α; hTNF
Assay: kinetic exclusion assay (KinExA 3000), 40 pM Fab with 400 pM hTNF-α, time course
Protocol: Next, binding kinetics of three of the Fab fragments described in Table 4 were determined in a kinetic exclusion assay. Affinity measurements were performed on a KinExA™3000 instrument (Sapidyne Instruments, Inc., Boise, Id.) using Fab fragments (A10K, A9K, and A10P) released from the periplasmic space whose concentration was determined by a quantitative ELISA. Briefly, antigen and antibody fragment were allowed to react in solution and the fraction of unbound reagent was determined by capture and measured on a bead support. Binding kinetics can be determined or calculated from the amount of unbound reagent. For instance, after interaction between TNF-α and a Fab fragment has occurred in solution, binding of the unreacted, free Fab fragment to TNF-α coated beads can be measured on the instrument by detection with a labeled secondary antibody to the Fab fragment (e.g., a goat anti-IgG (heavy and light)). […] After the incubation, the amount of unbound Fab in the equilibrated samples was determined on the KinExA™3000 instrument according to the manufacturer's instructions. Kd values were determined by the instrument software.
To measure kₒₙ, individual Fab fragments at a concentration of 40 pM were mixed with 400 pM of hTNF-α. […] The resulting data was used to calculate the kₒₙ with the instrument software. koff was calculated by using the formula Kd=koff/kₒₙ.

T1 sequence (P01375 77-233 limits assumed): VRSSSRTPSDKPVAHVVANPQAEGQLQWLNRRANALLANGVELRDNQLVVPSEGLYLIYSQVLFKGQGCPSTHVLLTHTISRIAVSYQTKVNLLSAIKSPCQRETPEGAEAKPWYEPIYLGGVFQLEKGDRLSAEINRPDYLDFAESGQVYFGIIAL

kon: 3.92e+06 to 7.51e+06 M⁻¹ s⁻¹
B1: A10K Fab fragment (Fab, V domains shown)
VH: EVQLVESGGGLVQPGGSLRLSCAASGFKFSNHWMNWVRQAPGKGLEWVGEIRSKSMNSATHYAESVKGRFTISRDDSKNSLYLQMNSLKTEDTAVYYCARNYYGSTYDHWGQGTLVTVSS
VL: EIVLTQSPDFQSVTPKEKVTITCRASQFVGYSIHWYQQKPDQSPKLLIKYASESRSGVPSRFSGSGSGTDFTLTINSLEAEDAATYYCQQSHSWHFTFGQGTKVEIK
notes: Fab released from the E. coli periplasm; The light chain is kappa, since it was detected with anti-human kappa; Mutations against hu1: light S31Y, M55R
